Experiment: purified protein yield per well (BCA); higher = higher soluble expression
Outline: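 Each candidate enzyme was grown in E. coli C41(DE3) in a 2 mL autoinduction culture (100 µg/mL kanamycin; 2 h at 37 °C, then 40 h at 18 °C) and purified robotically via Ni-charged magnetic beads with SUMO protease cleavage. Purified protein yield per well was assessed using the Pierce Rapid Gold BCA kit. Readings below 25 ug (0.1 mg/mL) are beneath the detection threshold.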

| Sequence | purified protein yield per well [µg] |
| --- | --- |
| CTWRGPNPPPATLDAPMGPFTTTSSVVTTSPGFGDGTMYYPDTEPGPFGVVAVAPGWLASQNSLDTLGNRIASHGFVVITIDVNRPRSDGPQSRADQLLAALDQVANEAAVAGIADNTRQAVMGHSMGGGGALYASIDRPALKASIPLAPWARGADFSAVTVPTMIIGCEDDTVAPVGSHAIAFYDAIANTVPKAYAEIADASHSCVNDFNTDPLETAEVASSAVSFLKRFVDNDSRYTPFLCPIPELDPPLSDRRATCPYN [TEP148] | < 25 |
| MTVPPGNGFNGGKIYYPTDTSLGTWAAVAAVPGYTARWDAEGAWMGPWLASFGFVVIGIDTNSPTDYDTARGTQLLAALDYLTQKSPVRDRVDPNRLGVLGHSMGGGGAISAAERRPSLKAALPLAPFSPSQNLSSLRVPTMIMGARDDGTVTPSYLNGLYGSMPTATQSAYIELTSGGHGFPTWGNSNVTRRTIPWLKIFLDNDTRYTQFLCPSLADSSGISRSQTKCPYVPPGGTTTPPSGGQIVGAGSGRCLDVPNASQTNGAQVQLWDCSGNVNQKWARTDAGELRVYGSKCLDAEGSGTSPGTRVIVWDCHGGQNQRWNVNTNGTITSVGSGLCLDTNGGGTGNGAQTVLGNCNGAPTQRWTVR [ESM105] | < 25 |
| GPYQVAYYSSYPPVPEFSAATIYFPANKGEDFAGVAISPGFVESQENMSWWGRHLASHGFAVLTLDTNELRDNPSLRADALMAAIEVLRNEGDRMGSTLRGKILKDRMAIMGHSMGGGGTLIAANAHSADLKAAIPFTPWQPDGDFSTISIPTLVIAGENDRIAVMDIHGASLSTIHHEGDEGV [TEP125] | < 25 |
| SAAGNNIGHRQGGDTFASATVIEALPFSDSGTTSGFNNDYGPYSNQSSYNICQWQGYYDNTNTGAGPDVVYSLALSEEKTVKISLCGSDYDTGLGVFDGSGVQVLGNDDACSLQSEVVCALPEGLYYIVVDGYSTSSGNYVLNVSIEEDLFGPYSVGTITEDDGLRDGPDYCCGIVYYPTDAVGYLPAIVYIPGYAGTISSNENWGPYLASHGIVTMFVNANFSLASNETRAEALLDGLVTIQDENQRPGSPLYGNLNLNQLAVAGHSRGGGAALLAAAAEPSVNAVLALAPWLEDQFINSTTLDQDVPVLFLSGQLDESAPNDVHTNLFYAYTPETTDKLLYEISGGDHFIVKDPSNNSAMAMKALYWLEKYLTNDPTHC [TEP001] | < 25 |
| FGAVAISPGFTAAWSSLSWLGPRLASHGFVVIGIETNSRLDQPASRGDQLLAALDWAVNQSPAASRIDRNRLAVAGHSMGGGGTLEAAKDRPSLKAAIPIAPWNLDKTWPEIRTPTLILGGENDLIAPVASHAEPFYNSIPASAEKAYLELDNESHFFPQFSNTIMAKYMISWLKRFVDNDTRYDQFLCP [TEP090] | < 25 |
| AAPHASTAHHHAPFAVRTTVVPRTADAKFGGGVIYEPQDTGKPVLGAVVITPGFTDTNADEKEMAELVASQGFVAFAIDTLDVGDLPDQRATEILAAADYLTGQSAVKSQVSAKDLAFLGYSMGGGGTFQAAQARPSVKAAIGLMPFDIPDANDPNATTPSYPKLTTPSLVVTGQKDDVADPEYFGKPIYDSIPVGTPKQYLELTGLGHGAGEHVPAPTIRVAVTAFLKRYLDGNSAYAKYICPAPKVGGPVSASLSSCPQG [ESM176] | < 25 |
| RPSSAATSLAATQRGPDPTVAMIEATRGPFATAQVSVPSGHGFGGGMIYYPTDTSLGTWGALAIVPGYSALFANEEAWMGPWLSSFGFVVIGVETNTRTDSDSQRAAELQAALDYLTTQSPVRNQVDPTRLSVLGHSAGGAGAIEEAEQHPSLRALIGLAPGFPGQGLSMATDKVPSLIIGGQADGTVTPSYLANLYGTLPASTQSAFAQIAGADHVYYTHPNNVEMKLIIPWLKLFVDGDNRYQQFLCPALPDPSTISAYQPKCPYTPPGGSTSSSSSSTTTTTTTTSTTPTSTSSSPSGSCSATYQTQNYWPGGFQGLVTVTAGSAPISKWTVKWTLSSGQTITQVWNGTLSTSGSAVSVANVSYNGSLSPGTSTTFGFLANGPTSAPTLSCTGS [ESM039] | < 25 |
| ADSPYQRGPDPTPASVAATRGPFATTQATVPAGNGFNGGYVYYPTDTSQGTWGAVAIVPGYSALFANEEAWMGPWLASFGFVVIGIETNSRSDGADARATQLLAALDYLTRTSPIRDRVDANRLGVMGHSAGGAGTLLASLRRPTLKTAVGLAPGTPGNNLNMSTTQVPTMLLSGQNDGTVTPSYVQGIYNTLPAGVEHAWAELAGNDHLSFTRSNPTEMRLLIPWLKTFLDNDTRYTQFLCPLGNSTGVSRYNATCPLVPPDGPTTPPTSSPPTSAPPTTSAPTTPPPSGAPCTATYRTVNAWSGGFQGEVTVTAGTAAINGWTVTWGLNNGQSISQVWSGTLSTSGSTATIRNVSYNGSLAPGGTTSFGFLGSGTPAATSPTCASP [ESM025] | < 25 |
| DGEYRVLTYTDFPDAPEFGDGTIYYPVGTPGPIGGVAIVPGFTEEQRAVAWLGPRLASHGYAVLIFDTNDRRDPAQVRADELMGAVRVLRAENSRRGSPLFGRIDASKMAIMGHSMGGGGALLAADAHSDQVSAVITFAPYEPTASFSEITVPTLIFGGSADPIAPVADHAWRHFNSIPAST [TEP123] | < 25 |
| APANPYERGPDPTEASVTAEKGPFTIERIDVPTGSGTGFNRGTIYAPTDTSQGTFGAIAVSPGFVSPQAWIDWYGPRLASQGFVVMTLETLNLMDVPDSRANQLLAALDYLTGKSTVKNRIDPARLAVMGHSMGGGATLRAAAERPALQAAIPLAPWHTDRDWQGVTVPTMIMGADNDFIAGVGAHAEPFYRNLTSAPEKAYLELRNAGHMSFNTPNTTIAKYGISWMKRFVDDDTRYDRFLCPAPRPGAAINEYRDTCPNG [TEP186] | < 25 |
| AAPVHHAVTRPVAAHHPVTRPVAGHAPPPSTVDQIVVPATADARFGGGTIFAPHGAGQKVLGSVIVTPGFHGRKSDMAVYGTELAAEGFVVFTIDTRERADLPAQRATEMLAAADYLTGRSAVKGEVSPDRVALLGYSMGGGGTLEAAQERPSIKAALTLMPYDYPPAGDPKAVHPAYPELTVPTLIITGQKDATAIPAKFGKPAYDSIPAGTPKQYLQLTGLGHAAGMGKPTATIRAAITAFLERYLDGDTAYAKDICPAPEVGGPISASTSSCPAG [ESM183] | < 25 |
| QIGPAPTSASLNATAGPLAVSTSTVTVATGFGGGTIYYPSTAGQYGVIAISPGFTATQSSVAWLGRRLATHGFVVITIDTNTTLDQPASRATQLIAALNYVVNSASSTVRSRVDPNRRAVAGHSMGGGGALIAAENNPSLKASLPLTPWNLSSSFTQVRVPTLIVGSDGDAVAPVAVHARPFYASLPGTTYKAYAELNLATHFTPNSTNTPIGRYGVTWMKRFVDADTRYSSFLCGADHQAYATALVFDRYSQNCPY [ESM116] | < 25 |
| FGGGTIYYPTSTADGTFGAVVISPGFTAYESSIAWLGPRLASQGFVVFTIDTNTTLDQPDSRGRQLLAALDYLTQRSSVRTRVDATRLGVMGHSMGGGGSLEAAKSRPSLKAAIPLTGWNTDKTWPELRTPTLVVGADGDSIAPVATHSEPFYESLPGSLDKAYLELRGASHFTP [TEP045] | < 25 |
| QNCGNISLNNITNPGPYGYLTMDQNDGLRDGPDYGNATVYYPTNTTTPFACVSIVPGFFSTQSSVAAWGPFLASHGIVSIIFDTNSLFDSPADRADGLLDALETMRQENTRTASPLFGLIDESRFGVMGWSMGGGGAQLAAVIDPSLKAVIALCPWLNSPNSNTLNHTVPVLILSGELDPTAPPDLHADVHFDLTPNTTDKLLFEVDGGDHSIANDPANAQGDIGKYGLAWLRNYLLDDPCHCPLVLLPSTETSNTMTNVVCPPTLACPIQLTLFNNLIADGTYKAIQTVTSASMVPLSGNVSLKAEQSIFLDCGFSVDSGAAFEAVIQICN [TEP048] | < 25 |
| ADNPYQRGPDPTVASVAATRGTFATAQLTVPAGNGFGGGYVYYPTDTSQGTWGAVAIVPGYSARFADEEAWMGPWLASFGFVVIGVETITRTDGADARATQLLAALDYLVGQSPVRDRVDPARLAVMGHSAGGAGTIIAAERRPSLRAAVGLAPGTPGSLSLATDRVPMMVIGGQTDPTVTPSYLDNLYATVPAATPSDFVQIAGADHLFFTRANNTEMKVLIPWLKIFLDSDTRYTSLLCPSLADPSGISLYRSKCPYVPPGTTSPSPSSPSPSSPGPPVPVAACTATYRTVNAWPGGFQGEVVVTAGGTAITGWTVRWTLGSGQTISQLWNGNLTTSGSAVTVDSAAYNGSVPPAGSVVFGFLATGSPTTPAPVCASP [ESM046] | < 25 |
| MRRSLPPSAEAGTAVGGAGPGRPARPVLPLAAVALTLVAAVTAALLAIRPATTDAKSSQRGPDPTLAGVAAATGPFTTAQVSVPPGDGFNGGTIYYPADTSRGTWAAVAISPGYTALFADEEAWMGPRLASFGFVVIGIETDSRTDYDSQRGTQLLAALDYLTTQSPVRNRVDPRRLGVIGHSMGGGGVVYAAENRPSLKAAVALAPYSPTQDMSTDTVPTMVIDGQNDTVVTPAAVDALYATLPASTRSAFMQIDGADHAYYTHPNPVEMRVLIPWLKIFLDNDTRYTRFLCPSPADPSGVSSYHSRCP [TEP071] | < 25 |
| QTPQAPTAASLNATSGPLSVSTQSVSSLSARGFGGGTVYYPTTAGRYGAVAISPGFTATQSSVAWLGRRLASHGLVVITINTNSTLDQPASRATQLMAALTYVTSASGTTVQSRVDPQRLAVAGHSMGGGGALIAARDNPTLKASLPLTPWNTTTNFSGIRVPTLIVGADGDTVASVTAHARPFYASLPSNTFKAYAELNSASHFTPNSANTPIGRYGVTWLKRFVDNDSRYSPFLCGAEHQAYATAQVFDRYQQNCPY [ESM188] | < 25 |
| HAPVHQPAVAHHHAPFAVRTTAVPKTAVTTFGGGVIYTPQDTGKAVLGAVVITPGFTDTNADEKEMAELVASQGFVAFAIDTLDTSDLPAQRSTEILAAADYLTGQSAVKSQVSAKDVGLIGYSFGGGGTMEAAQARPSIKAAIGLMPFDFPDANDPNAQYATYPKLTTPTLVITGEKDDVATPKDYGKPAYDSIPAGTPKQYLELKGLGHGAGEHVPVPTIRNAVTAFLKRYLDGNSAYAKFICPAPKVGGPISVSLSSCPKG [TEP026] | < 25 |
| VEIGPAPTSTLLNGDGPFAVSTDSVSSLVTGFGGGTIYYPTTSGQYAAVAVCPGFTGTSSSISWFARRLATHGFVTIAMNTNTIYDYPSSRATQLAAALRYLLNSSSSTIRARIRTADRAVAGHSMGGGGTLIASANDSTLRAGIPLTPWNTYTSFSSVRVPQMIFGADGDTIAPYASHARPFYNSLSYPEKAYALLNGATHFTPNSTDQRIGRYGVAFAKRFVDGDTRYTPFLCGAEHTAYATSSRFDTYLSTCPY [TEP032] | < 25 |
| AANPYERGPAPTTAVLEAARGPFATTSAAIARTSSFGGGTVYYPTDTSQGTFGAVAISPGFSATQSSVAWYGPRLASHGFVVVTINTLSGWDDPDSRARQLLAALDYLTNTHAVRTRIDKTRLGVMGHSMGGGGALRASVSRPSLQAAIPLAPWHNTKNWSSDGVPTLIVGAENDTVAPVNQHAEPFYTSITGAPDKAYLELNNAGHSAPSSEGPNVTVGKFSVAWLKRFIDNDTRYEQFLCPAPRPDTRINEYRDTCPHS [TEP084] | < 25 |

— the supplement of paper PMC12455559
